Data on eight molecules can be found in patent US5541109.

Ends that are not written are not given here. A value given as a limit tells only on which side of the number the result lay.

The target in test [1] is ^32 P-labeled GST/PKA fusion protein (Schistosoma japonicum (Blood fluke)) [GST: P08515]. The experiment in a line: peptide on AminoLink resin, precipitation of 32P-labelled control fusion, counting.
Test [2] has as its target ^32 P-labeled GST/PKA/Src SH3 fusion protein (PKA site phosphorylated) (Schistosoma japonicum (Blood fluke)) [GST: P08515]. The experiment in a line: peptide on AminoLink agarose, 32P-labelled fusion, counting.
The target in test [3] is radiolabeled GST/PKA/rasGAP SH3 (Schistosoma japonicum (Blood fluke)) [GST: P08515]. The test is described as above.

B1: fuse5B 4.3-7 (7 mer) (peptide)
peptide: RPLPVPP
modifications: not fully specified
As for B1, in test [1], the fold lower binding than GST/PKA/Src SH3 worked out at 100 fold.

B2: fuse5B 4.3-12 (12 mer) (peptide)
peptide: LARPLPVPPWRQ
modifications: not fully specified; printed as Leu Ala Arg Pro Leu Pro Val Pro Pro Trp Arg Gln
In turn, B2 showed a fold lower binding than GST/PKA/Src SH3 in test [1] of 100 fold.

B3: peptide pL14-1-7-mer (peptide)
peptide: RPLPSPP
modifications: not fully specified
Take B3: the fold lower binding than GST/PKA/Src SH3 in test [1] is 100 fold.

B4: fuse5B 4.3-15 (15 mer) (peptide)
peptide: LALARPLPVPPWRQI
modifications: not fully specified
The molecule B4 returned a fold lower binding than GST/PKA/Src SH3 in test [1] of 100 fold.

B5: peptide pL14-1 (peptide)
peptide: QSRPLPSPPKFT
modifications: not fully specified
Consider B5, for which the percent of CPM bound to beads/CPM applied to beads in test [2] stood at 70%. The molecule further showed a fold lower binding than GST/PKA/Src SH3 in test [1] of 100 fold.

B6: peptide pL17-2 (peptide)
peptide: APPAATPPPPRLFRPPA
modifications: also: covalently coupled to AminoLink agarose
B6 had a percent of CPM bound to beads/CPM applied to beads in test [3] of 10%.

B7: pSV40, proline-rich peptide from SV40 T antigen (peptide)
peptide: KPPTPPPEPET
modifications: not fully specified
In test [2], B7 came in with a percent of CPM bound to beads/CPM applied to beads below 1%.

B8: peptide pL35 (peptide)
peptide: TPAPPPLPPRNV
modifications: also: covalently coupled to AminoLink agarose
Regarding B8, in test [2], the percent of CPM bound to beads/CPM applied to beads was found to be 90%.
